Experimental data published in paper PMC1260013 (BMC Biochemistry, 2005).
Values joined by “and” are separate entries in the source; they are usually repeats but may differ in a detail not shown here. Equal values may be shown once.

How the values were obtained:
[1] = target: the molecule itself; assay: SEC; Superdex-200 HR 10/30, room temperature, 2.4 mg/ml recombinant ICD-1, calibrated with molecular-mass standards
SEC = target: the molecule itself; assay: SEC
[2] = target: the molecule itself; assay: SEC; Superose 6 10/300 GL, room temperature, concentrated ICD-2 (~400 ug; 1.06 mg/ml), high salt (1 M NaCl)
[3] = target: the molecule itself; assay: SEC; Superose 6 10/300 GL, room temperature, concentrated ICD-2 (~400 ug; 1.06 mg/ml), low salt (100 mM NaCl)

Row | Protein | stoichiometry N [1] | stoichiometry N (SEC) | stoichiometry N [2] | stoichiometry N [3]
1 | Mycobacterium tuberculosis isocitrate dehydrogenase ICD-1 (Rv3339c) (enzyme, also called M.tb ICD-1; M. tb ICD-1) MSNAPKIKVSGPVVELDGDEMTRVIWKLIKDMLILPYLDIRLDYYDLGIEHRDATDDQVTIDAAYAIKKHGVGVKCATITPDEARVEEFNLKKMWLSPNGTIRNILGGTIFREPIVISNVPRLVPGWTKPIVIGRHAFGDQYRATNFKVDQPGTVTLTFTPADGSAPIVHEMVSIPEDGGVVLGMYNFKESIRDFARASFSYGLNAKWPVYLSTKNTILKAYDGMFKDEFERVYEEEFKAQFEAAGLTYEHRLIDDMVAACLKWEGGYVWACKNYDGDVQSDTVAQGYGSLGLMTSVLMTADGKTVEAEAAHGTVTRHYRQYQAGKPTSTNPIASIFAWTRGLQHRGKLDGTPEVIDFAHKLESVVIATVESGKMTKDLAILIGPEQDWLNSEEFLDAIADNLEKELAN | 4 and 2 |  |  | 
2 | Mycobacterium tuberculosis isocitrate dehydrogenase ICD-2 (Rv0066c) (enzyme, also called M.tb ICD-2; M. tb ICD-2) MSAEQPTIIYTLTDEAPLLATYAFLPIVRAFAEPAGIKIEASDISVAARILAEFPDYLTEEQRVPDNLAELGRLTQLPDTNIIKLPNISASVPQLVAAIKELQDKGYAVPDYPADPKTDQEKAIKERYARCLGSAVNPVLRQGNSDRRAPKAVKEYARKHPHSMGEWSMASRTHVAHMRHGDFYAGEKSMTLDRARNVRMELLAKSGKTIVLKPEVPLDDGDVIDSMFMSKKALCDFYEEQMQDAFETGVMFSLHVKATMMKVSHPIVFGHAVRIFYKDAFAKHQELFDDLGVNVNNGLSDLYSKIESLPASQRDEIIEDLHRCHEHRPELAMVDSARGISNFHSPSDVIVDASMPAMIRAGGKMYGADGKLKDTKAVNPESTFSRIYQEIINFCKTNGQFDPTTMGTVPNVGLMAQQAEEYGSHDKTFEIPEDGVANIVDVATGEVLLTENVEAGDIWRMCIVKDAPIRDWVKLAVTRARISGMPVLFWLDPYRPHENELIKKVKTYLKDHDTEGLDIQIMSQVRSMRYTCERLVRGLDTIAATGNILRDYLTDLFPILELGTSAKMLSVVPLMAGGGMYETGAGGSAPKHVKQLVEENHLRWDSLGEFLALGAGFEDIGIKTGNERAKLLGKTLDAAIGKLLDNDKSPSRKTGELDNRGSQFYLAMYWAQELAAQTDDQQLAEHFASLADVLTKNEDVIVRELTEVQGEPVDIGGYYAPDSDMTTAVMRPSKTFNAALEAVQG |  | 3 | 2 | 4
